Measurements from publication PMC5771124, “Characterization of a functional insertion sequence ISSau2 from Staphylococcus aureus”.

Target: ISSau2 transposase OrfAB (Staphylococcus aureus E48 (ISSau2 in …, UniProt UPI0010FBCD58 1-522, F226L))
Test: EMSA; Mg2+, excess poly(dI-dC), 0.42 ug OrfAB
Settings: protein: recombinant; tags: N-terminal 6-His (pET32a vector fusion); label: biotin end label

B1: IRL42 (dsDNA)
DNA 1: TGAAATGCTCCCTTCAAAGTAGACATTGAAAAAATGAAAACT
DNA 2: AGTTTTCATTTTTTCAATGTCTACTTTGAAGGGAGCATTTCA
B1: binds.
